Source: the supplement of paper PMC9732359
± gives the uncertainty stated by the source.

Experiment: protein stability index of a GFP-peptide fusion (yeast GPS) (PSI 1-4); higher = more stable; sorted into four equal gates, so the index is relative within each strain
Outline: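 Tiled yeast protein peptides of 17 residues were each joined downstream of GFP, on plasmids that also express Cherry. The pooled library was maintained in yeast, and mid-log cultures in leucine-free medium were sorted into four equal gates on the GFP/Cherry ratio. Plasmids from every gate were amplified by PCR and sequenced on Illumina, with barcodes linking reads to strains. The protein stability index of a peptide is its gate-number-weighted read frequency summed over the gates.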

Sequence | protein stability index (doa10∆) | protein stability index (pdr5∆) | protein stability index (san1∆) | protein stability index (ubr1∆)
ENESTNYQYKIQELRKL [MED7] | 2.25 ± 0.054 | 2.61 ± 0.074 | 2.36 ± 0.074 | 2.69 ± 0.06
ENGTLLVPPPRTIANQD [RPR2] | 3.01 ± 0.054 | 3.05 ± 0.052 | 2.81 ± 0.05 | 2.99 ± 0.036
ENIEPLDPINLPLDSQD [PRP8] | 2.87 ± 0.078 | 2.97 ± 0.089 | 2.49 ± 0.11 | 3.04 ± 0.067
ENLNRNWRGREHWKVRN [BRN1] | 3.57 ± 0.11 | 3.33 ± 0.14 | 3.37 ± 0.063 | 3.5 ± 0.08
ENPAFLPGTNNNSNSNN [SEC65] | 3.12 ± 0.17 | 3.13 ± 0.24 | 2.69 ± 0.15 | 2.86 ± 0.067
ENPNFWRQFGNRMQISP [GRR1] | 3.14 ± 0.13 | 3.02 ± 0.13 | 2.93 ± 0.11 | 2.76 ± 0.12
ENQPFHGIKDIPIGHVH [AAR2] | 2.79 ± 0.078 | 2.98 ± 0.086 | 2.89 ± 0.084 | 2.67 ± 0.092
ENSYLRGLTPQEFFFHA [RPO21] | 2.49 ± 0.046 | 2.64 ± 0.046 | 2.45 ± 0.062 | 2.64 ± 0.047
ENVGTRLLPINVNKKAL [MED11] | 2.87 ± 0.18 | 2.65 ± 0.13 | 2.89 ± 0.094 | 2.98 ± 0.22
ENVILGQMAPIGTGAFD [RPO21] | 2.33 ± 0.11 | 2.37 ± 0.13 | 2.36 ± 0.12 | 2.54 ± 0.056
ENYEGKQDKTLQKVENQ [YIL149C/MLP2] | 3.2 ± 0.18 | 3.29 ± 0.14 | 2.8 ± 0.17 | 3.21 ± 0.21
EPQGAVTHMDQIFVRGS [SMD3] | 2.64 ± 0.11 | 2.77 ± 0.07 | 2.62 ± 0.099 | 2.56 ± 0.11
EPSGIYSSWSAQTIGRN [PRE6] | 1.24 ± 0.064 | 1.21 ± 0.089 | 1.06 ± 0.18 | 1.53 ± 0.097
EQEIENNGLPMKNKAET [ITC1] | 2.81 ± 0.065 | 3.06 ± 0.066 | 3 ± 0.045 | 2.9 ± 0.067
EQEQQQQQIIKIRITLT [RPS20] | 2.77 ± 0.057 | 2.86 ± 0.06 | 3.03 ± 0.043 | 3.09 ± 0.061
EQISNNSNQQQNPKLFQ [SIN4] | 2.96 ± 0.062 | 2.67 ± 0.045 | 3.13 ± 0.062 | 2.95 ± 0.052
EQKLQTVLETLLSDVNQ [SMC3] |  |  |  | 1.22 ± 0.13
EQKNTAKEELNGLKDQL [YIL149C/MLP2] | 3.19 ± 0.1 | 3.32 ± 0.16 | 3.12 ± 0.054 | 3.31 ± 0.07
EQLKEQMEDMEESINEF [SMC4] | 3.17 ± 0.21 | 3.2 ± 0.1 | 3.17 ± 0.048 | 
EQNSSSAKPSQIPTVSS [SIR4] | 2.99 ± 0.062 | 2.97 ± 0.051 | 2.97 ± 0.048 | 3.04 ± 0.05
EQQWITRAQYLAFAKLV [SRP68] | 1.63 ± 0.06 | 1.51 ± 0.051 | 1.33 ± 0.086 | 1.5 ± 0.051
EQSELLKAQITSLKCLV [SNF2] | 1.92 ± 0.049 | 1.83 ± 0.048 | 2.16 ± 0.074 | 1.99 ± 0.042
EQSLEVFIFPTSNWEIY [SRB8] | 2.47 ± 0.067 | 2.2 ± 0.048 | 2.57 ± 0.044 | 2.52 ± 0.033
EREPVPLGILHIPICVT [RRP45] | 1.81 ± 0.077 | 1.88 ± 0.06 | 1.47 ± 0.19 | 1.95 ± 0.059
ERESSGAKDAEKSGISK [RPC17] | 2.91 ± 0.18 | 3.4 ± 0.3 |  | 3.64 ± 0.16

Sequence | protein stability index (doa10∆) | protein stability index (pdr5∆) | protein stability index (san1∆) | protein stability index (ubr1∆)
EREVFVDVKPKSPKERE [RPC25] |  | 2.98 ± 0.17 |  | 3.34 ± 0.13
ERFQVMVLRKQKRYTVK [RPL14A] | 2.37 ± 0.12 | 2.19 ± 0.1 | 2.21 ± 0.24 | 2.71 ± 0.11
ERGHPKDNARIYQVPEK [POP1] | 3.02 ± 0.082 | 3.02 ± 0.1 | 3 ± 0.093 | 3.11 ± 0.05
ERHQAGKNQWFFSKLRF [RPL27A] | 3.19 ± 0.091 | 3.24 ± 0.092 | 3.09 ± 0.075 | 3.18 ± 0.046
ERKEQEEKEKEQSKEVG [BRN1] | 3.48 ± 0.21 |  | 3.49 ± 0.11 | 3.45 ± 0.14
ERKQIHEFKLIVGKKIQ [GRR1] | 2.82 ± 0.045 | 2.58 ± 0.065 | 3.03 ± 0.06 | 3.13 ± 0.058
ERKTLERQQENLLIQRL [SWI3] | 3.07 ± 0.09 | 3.28 ± 0.087 | 3.12 ± 0.078 | 3.09 ± 0.067
ERNASEVRDATLNNIFR [GRR1] | 3.36 ± 0.17 |  | 3.41 ± 0.19 | 3.53 ± 0.16
ERPAIEFETPTFLVSND [RPN14] | 3 ± 0.063 | 3.14 ± 0.056 | 2.81 ± 0.06 | 2.9 ± 0.089
ERTKQRTAKAYLKVSEE [PRP8] | 3.08 ± 0.093 | 3.12 ± 0.11 | 3.27 ± 0.056 | 3.34 ± 0.057
ERVMKNKVEENLEGLYL [RPT2] | 3.12 ± 0.11 | 3.28 ± 0.067 | 3.07 ± 0.14 | 3.35 ± 0.12
ESAVKYALAAKDRFDID [RPN2] | 3.54 ± 0.27 | 3.09 ± 0.29 | 2.87 ± 0.22 | 3.45 ± 0.1
ESDSKATLQSNEPTQKD [DSN1] | 2.81 ± 0.12 | 2.94 ± 0.14 | 2.99 ± 0.071 | 3.02 ± 0.086
ESKLIPQENDLESKMSE [SMC3] | 2.81 ± 0.065 | 3.05 ± 0.065 | 3.15 ± 0.059 | 3.01 ± 0.054
ESKPFSSDALSKEKANF [SIR4] | 1.96 ± 0.068 | 1.59 ± 0.065 | 1.73 ± 0.089 | 1.39 ± 0.056
ESKSDDNSATSYYELET [RRI1] | 3.25 ± 0.084 | 3.24 ± 0.059 | 3.13 ± 0.067 | 3.19 ± 0.057
ESLYEPNLEPEDLFETI [PUP3] | 3.27 ± 0.12 | 3.09 ± 0.13 | 2.99 ± 0.11 | 3.01 ± 0.078
ESPVDVQSQVDSSSVSE [FAS1] | 3.11 ± 0.06 | 3.3 ± 0.073 | 3.14 ± 0.051 | 3.23 ± 0.042
ESSINTHPHAADGSSYM [SKI6] | 2.98 ± 0.047 | 3.22 ± 0.039 | 3 ± 0.035 | 3.05 ± 0.036
ESSSEDDYEDQDDDDYV [IRR1] | 3.58 ± 0.16 | 3.52 ± 0.11 |  | 3.65 ± 0.16
ESVPIYSIDEFFLQRKL [BRR2] | 3.44 ± 0.13 | 3.21 ± 0.062 | 2.96 ± 0.12 | 3.33 ± 0.057
ESYNQNDWKLETERLIS [SIN4] | 3.4 ± 0.09 | 3.21 ± 0.14 | 3.29 ± 0.066 | 3.15 ± 0.11
ETANVASLNLLQLAPGA [RPL4A] | 2.84 ± 0.14 | 3.02 ± 0.18 | 3.29 ± 0.078 | 3.27 ± 0.11
ETATSERNASEVRDATL [GRR1] | 3.53 ± 0.19 | 3.45 ± 0.19 |  | 3.52 ± 0.19
ETESSVSNNEANTPSIP [SWI3] | 3.09 ± 0.053 | 3.12 ± 0.069 | 3.11 ± 0.054 | 3.15 ± 0.054
